The values that follow come from PMC5537066, “Dimerization facilitates the conformational transitions for bacterial phosphotransferase enzyme I autophosphorylation in an allosteric manner” (FEBS Open Bio, 2017).

Usually Kd stands for the constant that tells how readily two partners part at equilibrium. A word on the stoichiometry N: it is a count of units in the complex or per binding partner.

Data set [1] concerns the molecule itself. In words: SEC-MALS; 200 uM protein injected on a WTC-0303 column, buffer A with 10 mM PEP, 25 °C; dimer to monomers. A general note: In gel filtration, larger molecules generally elute earlier.
Data set [2] concerns the molecule itself. Kind of data set: SEC-MALS; 200 uM protein injected on a WTC-0303 column, buffer A (20 mM Tris/HCl pH 7.4, 100 mM NaCl, 2 mM β-mercaptoethanol, 4 mM MgCl2), 25 °C, without PEP; 50 uM elution concentration; KD (dimer to monomers) estimated from the dimer fraction, semiquantitative.

B1: C-terminal domain of enzyme I with the G356S mutation, EIC(G356S) (domain or fragment)
chain: not shown
notes: C-terminal dimerization domain (EIC) of enzyme I, E. coli, residues 231-575, with G356S; also called EIC(G365S) (misprint in the text); source: E. coli BL21star (DE3), purified (DEAE or HisTrap, Superdex, monoQ)
B1 registered a percent dimer in data set [1] of approximately 80%. In data set [2], the Kd was not below 5 µM and the “stoichiometry N” value is 2.

B2: Enzyme I with the H189A and G356S mutations, EIA(G356S) (enzyme)
chain: not shown
notes: Enzyme I (EI) of the bacterial phosphotransferase system, E. coli, full length EI(1-575), with H189A and G356S; also called EI(G356S); source: E. coli BL21star (DE3), purified (DEAE or HisTrap, Superdex, monoQ)
In the case of B2, in data set [1], the percent dimer was more than 90% and the “stoichiometry N” value was determined as 2. The Kd in data set [2] is approximately 30 µM.

B3: Enzyme I (EI) with the active site H189A mutation, EI(1-575, H189A) (enzyme)
chain: not shown
notes: Enzyme I (EI) of the bacterial phosphotransferase system, E. coli, full length EI(1-575), with H189A; also called EIA; EI(H189A); source: E. coli BL21star (DE3), purified (DEAE or HisTrap, Superdex, monoQ)
In data set [1], B3 gave a percent dimer of more than 90%. In data set [2], the Kd is approximately 0.4 µM and the “stoichiometry N” value was 2.

B4: C-terminal domain of enzyme I, EIC(231-575) (domain or fragment)
chain: not shown
notes: C-terminal dimerization domain (EIC) of enzyme I, E. coli, residues 231-575, includes part of the connecting helix 231-260; source: E. coli BL21star (DE3), purified (DEAE or HisTrap, Superdex, monoQ)
Turning to B4, the “stoichiometry N” value in data set [2] was 2.
